The source of these data is patent US20120052092A1 (published 2012).

For assay [1], the target named is T1, factor H binding protein (wild type, variant 1) (UniProt E6MV22 20-274).
T1 chain: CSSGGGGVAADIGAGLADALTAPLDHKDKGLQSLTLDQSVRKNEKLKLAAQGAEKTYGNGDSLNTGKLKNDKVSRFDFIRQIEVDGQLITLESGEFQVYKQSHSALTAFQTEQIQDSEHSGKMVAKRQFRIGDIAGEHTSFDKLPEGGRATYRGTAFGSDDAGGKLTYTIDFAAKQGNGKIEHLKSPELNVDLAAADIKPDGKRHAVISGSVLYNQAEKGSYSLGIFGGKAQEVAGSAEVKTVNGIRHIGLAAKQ
Put plainly: SPR; 402His. (In general: Surface plasmon resonance follows binding to a sensor surface in real time, without labels.)

In assay [2] the target is T1, factor H binding protein (wild type, …). Put plainly: SPR.
For assay [3] the target is unchanged. Put plainly: SPR.
For assay [4], the target named is T2, Neisseria gonorrhoeae fHbp homologue (NGO0033) (Neisseria gonorrhoeae).
T2 chain: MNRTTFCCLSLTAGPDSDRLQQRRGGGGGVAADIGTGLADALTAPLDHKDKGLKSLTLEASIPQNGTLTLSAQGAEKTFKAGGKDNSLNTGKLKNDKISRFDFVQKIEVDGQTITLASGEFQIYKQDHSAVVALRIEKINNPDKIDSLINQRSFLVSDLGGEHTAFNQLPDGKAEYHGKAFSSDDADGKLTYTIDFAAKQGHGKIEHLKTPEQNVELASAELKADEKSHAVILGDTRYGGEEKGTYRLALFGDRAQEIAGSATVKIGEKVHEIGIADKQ
In words: SPR.

Assay [5] concerns the target fHbp Variant 2 (Neisseria meningitidis). Put plainly: SPR.
Assay [6] concerns the target fHbp Variant 3 (Neisseria meningitidis). In words: SPR.
The target of assay [7] is fH678 His 402. Put plainly: SPR; 402His.
Assay [8] addresses 6 7H 8. Put plainly: SPR; 402His.
Assay [9] concerns the target 6 7Y 8. In words: SPR; 402Tyr.
Assay [10] addresses fH678 Tyr402. In words: SPR; 402Tyr.
The target of assay [11] is FH67 N339E M340S. In words: SPR.
Assay [12] addresses fHbp variant 2 (Neisseria meningitidis). Put plainly: SPR; sensorgram.
Assay [13] addresses fHbp variant 3 (Neisseria meningitidis). Put plainly: SPR; sensorgram.

B1: Factor H Domains 5, 6 and 7 (other)
chain: KSCDNPYIPNGDYSPLRIKHRTGDEITYQCRNGFYPATRGNTAKCTSTGWIPAPRCTLKPCDYPDIKHGGLYHENMRRPYFPVAVGKYYSYYCDEHFETPSGSYWDHIHCTQDGWSPAVPCLRKCYFPYLENGYNQNYGRKFVQGKSIDVACHPGYALPKAQTTVTCMENGWSPTPRCI
On to B1, for which the Kd in assay [1] is 6 nM; in assay [2], 6.1 nM.

B2: fH67 (CCPs 6 and 7 of factor H) (other)
chain: TLKPCDYPDIKHGGLYHENMRRPYFPVAVGKYYSYYCDEHFETPSGSYWDHIHCTQDGWSPAVPCLRKCYFPYLENGYNQNYGRKFVQGKSIDVACHPGYALPKAQTTVTCMENGWSPTPRCI
For B2, the dissociation constant Kd in assay [1] is 4 nM; in [3], 5 nM; in assay [2], 4 nM; in [4] it was 6000 nM.

B3: FH67 (other)
chain: B2 chain
As for B3, the results for the Kd in assay [5] and in [6] were 2 nM and 3 nM, respectively.

B4: fHbp (other)
chain: T1 chain
With B4, the Kd in assay [7] was 5.7 nM; in assay [8], 6 nM; in assay [9] it was 7 nM; in assay [10], 7.2 nM.

B5: fHbp Variant 1 (other)
chain: T1 chain
In [11], B5 showed a Kd of 67 nM.

B6: FH678 (other)
chain: TLKPCDYPDIKHGGLYHENMRRPYFPVAVGKYYSYYCDEHFETPSGSYWDHIHCTQDGWSPAVPCLRKCYFPYLENGYNQNYGRKFVQGKSIDVACHPGYALPKAQTTVTCMENGWSPTPRCIRVKTCSKSSIDIENGFISESQYTYALKEKAKYQCKLGYVTADGETSGSITCGKDGWSAQPTCIKSC
On to B6, for which the equilibrium dissociation constant (Kd) was 1.51 nM in assay [12], 3.43 nM in assay [13], 2 nM in assay [5] and 3 nM in assay [6].

A word on the Kd: it is the constant that tells how readily two partners part at equilibrium.
